From PMC2592692
Numbering of substitutions follows the chain as printed. Names may count otherwise. Values belong to the molecule of their own block, whether it stands above or below them.

Tests used:
[1] = molecular target: microtubules (purified tubulin, polymerised in buffer); assay: TIRF of Eg5-GFP on immobilised GMPCPP microtubules; conditions: reference: wild-type Eg5-GFP, Cdk1-treated; sites T937
[2] = molecular target: Alexa-568 labeled microtubules (paclitaxel-stabilised) (UniProt P02550)
[3] = molecular target: spindle microtubules in Xenopus egg extract (Xenopus laevis (endogenous in egg extract)); assay: fluorescence microscopy of fixed spindles (GFP intensity per TAMRA-tubulin intensity); endogenous Eg5 immunodepleted from Xenopus egg extract and replaced by recombinant Eg5-GFP constructs; spindle structures fixed after 45 min, spun onto coverslips; ratios normalised to 1 at 460 nM Eg5-GFP

Sequence of UniProt P02550 (P02550 whole entry, looked up): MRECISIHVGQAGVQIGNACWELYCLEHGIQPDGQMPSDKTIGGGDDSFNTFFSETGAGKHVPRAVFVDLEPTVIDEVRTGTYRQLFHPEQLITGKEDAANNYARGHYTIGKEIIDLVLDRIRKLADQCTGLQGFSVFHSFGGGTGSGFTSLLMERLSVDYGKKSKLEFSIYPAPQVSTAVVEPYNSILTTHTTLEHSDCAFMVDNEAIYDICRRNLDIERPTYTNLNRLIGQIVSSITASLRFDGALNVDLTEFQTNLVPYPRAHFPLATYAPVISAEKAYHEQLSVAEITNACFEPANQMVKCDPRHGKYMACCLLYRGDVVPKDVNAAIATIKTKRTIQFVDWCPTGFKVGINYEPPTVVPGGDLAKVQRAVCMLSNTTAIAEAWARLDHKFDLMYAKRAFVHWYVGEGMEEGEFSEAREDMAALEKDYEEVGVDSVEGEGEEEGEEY

Molecule: Eg5 1-1067 Eg5T937A-GFP, Cdk1-treated
- other: mean GFP intensity on microtubules at 15 nM Eg5 [1]: weaker; reference 1226±39

B1: Eg5 phosphorylated at threonine 937 by Cdk1/cyclin B in vitro (natural protein)
chain: MSSQNSFMASKKEDKGKNIQVVVRCRPFNQLERKASSHSVLECDSQRKEVYVRTGEVNDKLGKKTYTFDMVFGPAAKQIEVYRSVVCPILDEVIMGYNCTIFAYGQTGTGKTFTMEGERSSDEEFTWEQDPLAGIIPRTLHQIFEKLSENGTEFSVKVSLLEIYNEELFDLLSPSPDVGERLQMFDDPRNKRGVIIKGLEEISVHNKDEVYHILERGAARRKTASTLMNAYSSRSHSVFSVTIHMKETTVDGEELVKIGKLNLVDLAGSENIGRSGAVDKRAREAGNINQSLLTLGRVITALVERTPHIPYRESKLTRILQDSLGGRTKTSIIATVSPASINLEETVSTLDYANRAKSIMNKPEVNQKLTKKALIKEYTEEIERLKRELAAAREKNGVYLSSENYEQLQGKVLSQEEMITEYTEKITAMEEELKSISELFADNKKELEECTTILQCKEKELEETQNHLQESKEQLAQESFVVSAFETTEKKLHGTANKLLSTVRETTRDVSGLHEKLDRKKAVDQHNFQVHENFAEQMDRRFSVIQRTVDDYSVKQQGMLDFYTNSIDDLLGASSSRLSATASAVAKSFASVQETVTKQVSHSVEEILKQETLSSQAKGDLQQLMAAHRTGLEEALRSDLLPVVTAVLDLNSHLSHCLQNFLIVADKIDSHKEDMNSFFTEHSRSLHKLRLDSSSALSSIQSEYESLKEDIATAQSMHSEGVNNLISSLQNQLNLLGMETQQQFSGFLSKGGKLQKSVGSLQQDLDLVSSEAIECISSHHKKLAEQSQDVAVEIRQLAGSNMSTLEESSKQCEKLTSSINTISQESQQWCESAGQKIDSVLEEQVCYLHSSKKHLQNLHKGVEDSCGSSVVEITDRVNAQRQAEEKALTSLVEQVRDDQEMVGEQRLELQEQVQSGLNKVHSYLKEELRNDVPTGTTPQRRDYAYPSLLVKTKPRDVLLEQFRQQQQEYLESISSVISEAVEPPVEQDSLEDEPPVAVNDSVISERSCIDLSMTCQEKGGIRFFQQKKALRKEKENRGNTTLLERSKIMDEVDQALTKSKLPLRMQN
modifications: phosphothreonine at 937 (degree of phosphorylation 87.9% per polypeptide chain)
- velocity in microtubule gliding assay (surface-adsorbed motor, 21°C) [2]: 1.7 µm/min

B2: Eg5_(T937A) (non-phosphorylatable mutant of full-length Xenopus laevis Eg5) (natural protein)
chain: B1 chain with T937A
- velocity in microtubule gliding assay relative to wild-type Eg5, with or without Cdk1/cyclin B [2]: 88%

Other lines, results leading:

- fold lower amount bound than wild-type Eg5-GFP, at endogenous concentration [3]: 20 fold
B3: Eg5_(T937A)-GFP (non-phosphorylatable mutant of Xenopus laevis Eg5 with C-terminal GFP) (natural protein)
chain: B1 chain with T937A

- velocity in microtubule gliding assay (surface-adsorbed motor, 21°C) [2]: 1.8 µm/min
B4: Eg5 (wild-type full-length Xenopus laevis Eg5), not phosphorylated (natural protein)
chain: B1 chain
